Results reported in EP4582451A1 (Changchun Genescience Pharmaceutical Co., Ltd., dated 2025).
Like-named read-outs stand apart in the source and are kept apart here.

How the values were obtained:
[1] = biological target: T1, mouse thyroid-stimulating hormone receptor (TSHR) (mouse, UniProt P47750 22-764); assay: flow cytometry (FACS), 293 cells overexpressing mouse TSHR
T1 construct: whole, on cells; Overexpressed on 293 cells; also called mouse TSHR; murine TSHR

[2] = biological target: T2, hFcRn-Avi (Biosystems, FCM-H82W7) (human (printed as hFcRn), UniProt P55899 24-297; P61769 21-119, biotin on the Avi tag is implied by capture on an SA chip); assay: SPR (Biacore 8K+), hFcRn-Avi captured on SA chip, antibody in flow, pH 6.0, 25 C, steady-state fit
T2 construct: Bought reagent

[3] = biological target: T3, human thyroid-stimulating hormone receptor (TSHR) (human, UniProt P16473 21-764); assay: flow cytometry (FACS), 293 cells overexpressing human TSHR
T3 construct: whole, on cells; Overexpressed on 293 cells; also called human TSHR

[4] = biological target: T4, monkey thyroid-stimulating hormone receptor (TSHR) (monkey, UniProt A0A2K5X226 21-764); assay: flow cytometry (FACS), 293 cells overexpressing monkey TSHR
T4 construct: Overexpressed on 293 cells; also called monkey TSHR

[5] = biological target: T3, human thyroid-stimulating hormone …; assay: cell-based or functional assay
[6] = biological target: T1, mouse thyroid-stimulating hormone …; assay: flow cytometry (FACS), 293 cells overexpressing mouse TSHR; remark: listed apart in the source
[7] = biological target: T3, human thyroid-stimulating hormone …; assay: cell-based or functional assay; remark: listed apart in the source
[8] = biological target: T4, monkey thyroid-stimulating hormone …; assay: flow cytometry (FACS), 293 cells overexpressing monkey TSHR; remark: listed apart in the source
[9] = biological target: T1, mouse thyroid-stimulating hormone …; assay: flow cytometry (FACS), 293 cells overexpressing mouse TSHR; remark: listed apart in the source
[10] = biological target: T4, monkey thyroid-stimulating hormone …; assay: flow cytometry (FACS), 293 cells overexpressing monkey TSHR; remark: listed apart in the source
[11] = biological target: T3, human thyroid-stimulating hormone …; assay: flow cytometry (FACS), 293 cells overexpressing human TSHR; remark: listed apart in the source
[12] = biological target: T4, monkey thyroid-stimulating hormone …; assay: flow cytometry (FACS), 293 cells overexpressing monkey TSHR; remark: listed apart in the source
[13] = biological target: T3, human thyroid-stimulating hormone …; assay: flow cytometry (FACS), 293 cells overexpressing human TSHR; remark: listed apart in the source
[14] = biological target: T1, mouse thyroid-stimulating hormone …; assay: flow cytometry (FACS), 293 cells overexpressing mouse TSHR; remark: listed apart in the source

T1 sequence (P47750 22-764): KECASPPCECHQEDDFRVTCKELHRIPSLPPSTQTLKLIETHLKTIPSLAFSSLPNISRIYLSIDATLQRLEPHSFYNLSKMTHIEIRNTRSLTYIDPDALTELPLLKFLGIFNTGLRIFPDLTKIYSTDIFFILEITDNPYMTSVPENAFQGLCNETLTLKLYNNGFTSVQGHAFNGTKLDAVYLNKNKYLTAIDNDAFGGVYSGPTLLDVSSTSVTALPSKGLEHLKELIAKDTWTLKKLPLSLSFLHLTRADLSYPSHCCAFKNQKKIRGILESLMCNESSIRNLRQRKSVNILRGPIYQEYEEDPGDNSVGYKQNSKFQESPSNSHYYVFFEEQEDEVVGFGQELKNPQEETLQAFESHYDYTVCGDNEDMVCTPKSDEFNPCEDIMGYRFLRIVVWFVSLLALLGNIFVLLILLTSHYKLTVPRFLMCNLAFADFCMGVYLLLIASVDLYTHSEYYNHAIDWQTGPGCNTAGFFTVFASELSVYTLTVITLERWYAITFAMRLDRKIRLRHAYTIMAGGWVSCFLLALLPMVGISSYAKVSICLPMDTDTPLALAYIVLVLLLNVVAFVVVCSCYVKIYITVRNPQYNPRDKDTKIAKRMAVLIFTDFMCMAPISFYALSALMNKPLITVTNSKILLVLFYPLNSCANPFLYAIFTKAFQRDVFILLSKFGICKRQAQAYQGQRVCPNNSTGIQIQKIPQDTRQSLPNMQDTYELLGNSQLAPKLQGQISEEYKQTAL
T4 sequence (A0A2K5X226 entry or part of it limits assumed, form in doubt): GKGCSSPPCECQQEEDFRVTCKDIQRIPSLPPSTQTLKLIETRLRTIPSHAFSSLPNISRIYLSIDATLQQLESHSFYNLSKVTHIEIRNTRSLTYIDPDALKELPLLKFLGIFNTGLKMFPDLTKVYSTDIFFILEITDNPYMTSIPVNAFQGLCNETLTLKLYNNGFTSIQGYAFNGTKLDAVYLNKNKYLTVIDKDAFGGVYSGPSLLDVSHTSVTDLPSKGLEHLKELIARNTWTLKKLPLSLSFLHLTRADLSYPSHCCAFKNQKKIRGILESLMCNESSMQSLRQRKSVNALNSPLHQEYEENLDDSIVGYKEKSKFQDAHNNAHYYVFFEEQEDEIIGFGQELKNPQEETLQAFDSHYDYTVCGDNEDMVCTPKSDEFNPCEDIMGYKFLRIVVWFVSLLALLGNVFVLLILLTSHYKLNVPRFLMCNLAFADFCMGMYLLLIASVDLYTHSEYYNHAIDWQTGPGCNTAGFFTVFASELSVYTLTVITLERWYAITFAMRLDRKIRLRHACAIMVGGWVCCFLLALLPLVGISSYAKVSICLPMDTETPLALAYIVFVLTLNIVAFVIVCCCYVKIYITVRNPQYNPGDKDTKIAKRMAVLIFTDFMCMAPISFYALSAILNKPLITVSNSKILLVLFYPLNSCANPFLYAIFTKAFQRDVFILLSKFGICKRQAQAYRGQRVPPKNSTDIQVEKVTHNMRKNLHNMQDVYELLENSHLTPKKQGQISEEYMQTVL
T3 sequence (P16473 21-764): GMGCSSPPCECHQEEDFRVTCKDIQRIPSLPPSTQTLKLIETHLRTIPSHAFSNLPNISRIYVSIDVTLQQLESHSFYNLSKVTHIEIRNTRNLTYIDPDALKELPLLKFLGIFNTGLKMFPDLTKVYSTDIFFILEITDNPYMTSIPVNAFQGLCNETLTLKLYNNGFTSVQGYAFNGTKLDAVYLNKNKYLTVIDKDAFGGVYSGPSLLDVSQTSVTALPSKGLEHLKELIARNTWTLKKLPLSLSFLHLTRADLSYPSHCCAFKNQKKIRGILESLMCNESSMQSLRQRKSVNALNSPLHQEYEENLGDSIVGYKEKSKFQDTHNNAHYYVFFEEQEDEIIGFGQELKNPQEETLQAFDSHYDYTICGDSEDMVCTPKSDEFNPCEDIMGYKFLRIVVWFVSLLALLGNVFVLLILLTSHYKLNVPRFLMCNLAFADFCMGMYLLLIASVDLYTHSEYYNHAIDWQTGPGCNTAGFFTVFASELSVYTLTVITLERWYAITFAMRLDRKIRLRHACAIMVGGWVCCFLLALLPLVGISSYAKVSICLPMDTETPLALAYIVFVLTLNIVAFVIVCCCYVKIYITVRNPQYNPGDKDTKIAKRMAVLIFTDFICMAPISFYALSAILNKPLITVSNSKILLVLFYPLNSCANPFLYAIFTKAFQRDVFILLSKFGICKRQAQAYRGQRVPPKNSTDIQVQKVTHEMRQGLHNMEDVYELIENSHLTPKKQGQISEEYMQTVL
T2 sequence (P55899 24-297 limits assumed, chain 1 of 2): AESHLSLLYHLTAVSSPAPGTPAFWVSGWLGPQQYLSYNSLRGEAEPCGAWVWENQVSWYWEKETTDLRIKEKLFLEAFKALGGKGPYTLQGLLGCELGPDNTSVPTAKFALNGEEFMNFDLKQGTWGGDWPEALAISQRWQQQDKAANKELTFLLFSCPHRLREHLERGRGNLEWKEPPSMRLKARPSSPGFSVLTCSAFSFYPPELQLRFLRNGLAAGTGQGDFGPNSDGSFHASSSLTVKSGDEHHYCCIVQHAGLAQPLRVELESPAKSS
T2 sequence (P61769 21-119 limits assumed, chain 2 of 2): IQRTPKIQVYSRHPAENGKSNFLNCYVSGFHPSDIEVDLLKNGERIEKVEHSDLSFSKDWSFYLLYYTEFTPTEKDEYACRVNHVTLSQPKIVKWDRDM

B1: hAb01_G4P_V1 (antibody, human IgG4 S228P, kappa)
heavy: EVQLVESGGGLVKPGGSLRLSCAASGFTLSDYYIYWVRQAPGKGLEWVATISDAVIYTYYADSVKGRFTISRDNAKNSLYLQMNSLRAEDTAVYFCARAYGSSEVMDYWGQGTLVTVSSASTKGPSVFPLAPCSRSTSESTAALGCLVKDYFPEPVTVSWNSGALTSGVHTFPAVLQSSGLYSLSSVVTVPSSSLGTKTYTCNVDHKPSNTKVDKRVESKYGPPCPPCPAPEFLGGPSVFLFPPKPKDTLYITREPEVTCVVVDVSQEDPEVQFNWYVDGVEVHNAKTKPREEQFNSTYRVVSVLTVLHQDWLNGKEYKCKVSNKGLPSSIEKTISKAKGQPREPQVYTLPPSQEEMTKNQVSLTCLVKGFYPSDIAVEWESNGQPENNYKTTPPVLDSDGSFFLYSRLTVDKSRWQEGNVFSCSVMHEALHNHYTQKSLSLSLGK
light: EIVLTQSPATLSLSPGERATLSCSASSSVSYMHWYQQKPGQAPKRWIYDTSKLASGVPARFSGSGSGTDYTLTISSLEPEDFAVYYCQQWSSNPWTFGGGTKLEIKRTVAAPSVFIFPPSDEQLKSGTASVVCLLNNFYPREAKVQWKVDNALQSGNSQESVTEQDSKDSTYSLSSTLTLSKADYEKHKVYACEVTHQGLSSPVTKSFNRGEC
notes: also called hAb01_G4_V1
EC50 [1]: 2.35 nM
Max_MFI [1]: 138000
Kd [2]: 119 nM
Response value (RU) [2]: 73.1 RU
EC50 [3]: 5.82 nM
Max_MFI [3]: 282000
EC50 [4]: 2.77 nM
Max_MFI [4]: 190000
IC50 (nM), cAMP in 293-human TSHR cells activated by Tab01 [5]: 2.95 nM
IC50 (nM), cAMP in 293-human TSHR cells activated by Tab02 [5]: 2.74 nM
Maximum inhibition rate (%), cAMP in 293-human TSHR cells activated by Tab01 [5]: 105%
Maximum inhibition rate (%), cAMP in 293-human TSHR cells activated by Tab02 [5]: 100%

B2: humanized antibody cAb01-VH1-DA-VL2 (antibody, human IgG4 S228P, kappa, V domains shown)
VH: EVQLVESGGGLVKPGGSLRLSCAASGFTLSDYYIYWVRQAPGKGLEWVSTISDAVIYTYYADSVKGRFTISRDNAKNSLYLQMNSLRAEDTAVYYCARAYGSSEVMDYWGQGTLVTVSS
VL: EIVLTQSPATLSLSPGERATLSCSASSSVSYMHWYQQKPGQAPRRWIYDTSKLASGIPARFSGSGSGTDYTLTISSLEPEDFAVYYCQQWSSNPWTFGGGTKLEIKR
notes: Humanized from mAb001
EC50 [6]: 2.4 nM
Maximum binding signal [6]: 113000
IC50(nM), cAMP in 293-human TSHR cells activated by Tab01 (30 nM) [7]: 1.3 nM
IC50(nM), cAMP in 293-human TSHR cells activated by Tab02 (6.5 nM) [7]: 0.91 nM
Inhibition rate (%), cAMP in 293-human TSHR cells activated by Tab01 (30 nM) [7]: 85.6%
Inhibition rate (%), cAMP in 293-human TSHR cells activated by Tab02 (6.5 nM) [7]: 87.4%
EC50 [8]: 2.19 nM
Maximum binding signal [8]: 187000

B3: humanized antibody cAb01-VH3-DA-VL2 (antibody, human IgG4 S228P, kappa, V domains shown)
VH: EVQLVESGGGLVKPGGSLRLSCAASGFTLSDYYIYWVRQAPGKRLEWVATISDAVIYTYYADSVKGRFTISRDNAKNSLYLQMNSLRAEDTAVYFCARAYGSSEVMDYWGQGTLVTVSS
VL: EIVLTQSPATLSLSPGERATLSCSASSSVSYMHWYQQKPGQAPRRWIYDTSKLASGIPARFSGSGSGTDYTLTISSLEPEDFAVYYCQQWSSNPWTFGGGTKLEIKR
notes: Humanized from mAb001
EC50 [6]: 2.09 nM
Maximum binding signal [6]: 129000
IC50(nM), cAMP in 293-human TSHR cells activated by Tab01 (30 nM) [7]: 0.29 nM
IC50(nM), cAMP in 293-human TSHR cells activated by Tab02 (6.5 nM) [7]: 0.23 nM
Inhibition rate (%), cAMP in 293-human TSHR cells activated by Tab01 (30 nM) [7]: 84%
Inhibition rate (%), cAMP in 293-human TSHR cells activated by Tab02 (6.5 nM) [7]: 82.8%
EC50 [8]: 2.29 nM
Maximum binding signal [8]: 225000

B4: hAb01_G1 (antibody, human IgG1, kappa)
heavy: not shown
light: EIVLTQSPATLSLSPGERATLSCSASSSVSYMHWYQQKPGQAPKRWIYDTSKLASGVPARFSGSGSGTDYTLTISSLEPEDFAVYYCQQWSSNPWTFGGGTKLEIKRTVAAPSVFIFPPSDEQLKSGTASVVCLLNNFYPREAKVQWKVDNALQSGNSQESVTEQDSKDSTYSLSSTLTLSKADYEKHKVYACEVTHQGLSSPVTKSFNRGEC
notes: Same variable regions as hAb01_G4P, constant region subtype hIgG1
Kd [2]: 189 nM
Response value (RU) [2]: 60.7 RU

B5: murine antibody mAb001 (antibody, V domains shown)
VH: EVQLVESGGGLVKPGGSLKLSCAASGFTLSDYYIYWVRQTPEKRLEWVATISDGVIYTYYADSVKGRFTISRDNAKNNLYLQMSSLKSEDTAMYFCARAYGSSEVMDYWGQGTSVTVSS
VL: QIVLTQSPAVLSASPGEKVTMTCSASSSVSYMHWYQQKSGTSPKRWIYDTSKLASGVPARFSGSGSGTSYSLTISSMEAEDAATYYCQQWSSNPWTFGGGTKLEIK
notes: Murine monoclonal antibody from hybridoma
EC50 [9]: 2.52 nM
Maximum binding signal [9]: 11800
EC50 [10]: 0.98 nM
Maximum binding signal [10]: 13600
EC50 [11]: 1.28 nM
Maximum binding signal [11]: 21000

B6: murine antibody mAb012 (antibody, V domains shown)
VH: EVQLQQSGPVLLKPGASVKMSCKASGYTFTDYYMNWVKQSHGKSLEWIGVINPYNGESSNNQKFKGKATMTVDKSSSTAYMELNSLTSEDSAVYYCARCYGYGYYFDYWGQGTTLSVAS
VL: QIVLTQSPAIMSASPGEKVTMTCSATSSVTYMHWYQQKSGTSPKRWIYDTSKLTSGVPPRFSGSGSGTSYSLTISSMEAEDAATYYCQQWSTYPYTFGGGTKLEIK
notes: as for B5
EC50 [9]: 8.65 nM
Maximum binding signal [9]: 20800
EC50 [10]: 2.8 nM
Maximum binding signal [10]: 24400
EC50 [11]: 4.74 nM
Maximum binding signal [11]: 30000

B7: murine antibody mAb021 (antibody, V domains shown)
VH: QVQLQQPGAEHVQPGASVKLSCKASGYTFSNYWMQWVRQRPGQGLDWIGEIDPADSYTAYSQKFKGKATLTVDTSSTTAYMQLSSLTSEDSAVYYCARRNLLRSGDYWGQGTSLTVSS
VL: QIVLTQSPAIMSASPGEKVTMTCSASSGITYIHWYQQKSGTSPKRWIYDSSKLASGVPARFSGSGSGTSYSLTISSMEAEDAATYYCQQWSGNPPTFGAGTKLEVK
notes: as for B5
EC50 [9]: 10.3 nM
Maximum binding signal [9]: 31600
EC50 [10]: 4.5 nM
Maximum binding signal [10]: 42400
EC50 [11]: 3.5 nM
Maximum binding signal [11]: 52000

B8: humanized antibody cAb21-VH2-VL2 (antibody, human IgG4 S228P, kappa, V domains shown)
VH: QVQLVQSGAEVKKPGASVKVSCKASGYTFSNYWMQWVRQAPGQGLEWIGEIDPADSYTAYSQKFKGRATMTVDTSTSTVYMELSSLRSEDTAVYYCARRNLLRSGDYWGQGTLVTVSS
VL: AIQLTQSPSSLSASVGDRVTITCSASSGITYIHWYQQKPGKAPKRWIYDSSKLASGVPSRFSGSGSGTDYTLTISSLQPEDFATYYCQQWSGNPPTFGQGTKLEIKR
notes: Humanized from mAb021
EC50 [12]: 9.3 nM
Maximum binding signal [12]: 313000
EC50 [13]: 10.4 nM
Maximum binding signal [13]: 402000
EC50 [14]: 11.9 nM
Maximum binding signal [14]: 175000

B9: humanized antibody cAb21-VH1-VL3 (antibody, human IgG4 S228P, kappa, V domains shown)
VH: QVQLVQSGAEVKKPGASVKVSCKASGYTFSNYWMQWVRQAPGQGLEWMGEIDPADSYTAYSQKFKGRVTMTRDTSTSTVYMELSSLRSEDTAVYYCARRNLLRSGDYWGQGTLVTVSS
VL: AIQLTQSPSSLSASVGDRVTITCSASSGITYIHWYQQKPGKAPKRWIYDSSKLASGVPARFSGSGSGTDYTLTISSLQPEDFATYYCQQWSGNPPTFGQGTKLEIKR
notes: Humanized from mAb021
EC50 [12]: 7.8 nM
Maximum binding signal [12]: 308000
EC50 [13]: 8.7 nM
Maximum binding signal [13]: 398000
EC50 [14]: 10.4 nM
Maximum binding signal [14]: 185000

B10: humanized antibody cAb12-VH1-QG&S-VL3 (antibody, human IgG4 S228P, kappa, V domains shown)
VH: QVQLVQSGAEVKKPGASVKVSCKASGYTFTDYYMNWVRQAPGQGLEWMGVINPYQGESSNNQKFKGRVTMTRDTSTSTVYMELSSLRSEDTAVYYCARSYGYGYYFDYWGQGTTVTVSS
VL: AIQLTQSPSSLSASVGDRVTITCSATSSVTYMHWYQQKPGKAPKRWIYDTSKLTSGVPPRFSGSGSGTDYTLTISSLQPEDFATYYCQQWSTYPYTFGGGTKLEIKR
notes: Humanized from mAb012
EC50 [12]: 8.1 nM
Maximum binding signal [12]: 269000
EC50 [13]: 10.5 nM
Maximum binding signal [13]: 420000
EC50 [14]: 14 nM
Maximum binding signal [14]: 98800

B11: humanized antibody cAb12-VH3-QG&S-VL3 (antibody, human IgG4 S228P, kappa, V domains shown)
VH: QVQLVQSGAEVKKPGASVKVSCKASGYTFTDYYMNWVKQAPGQGLEWIGVINPYQGESSNNQKFKGRATMTVDKSTSTVYMELSSLRSEDTAVYYCARSYGYGYYFDYWGQGTTVTVSS
VL: AIQLTQSPSSLSASVGDRVTITCSATSSVTYMHWYQQKPGKAPKRWIYDTSKLTSGVPPRFSGSGSGTDYTLTISSLQPEDFATYYCQQWSTYPYTFGGGTKLEIKR
notes: Humanized from mAb012
EC50 [12]: 9.2 nM
Maximum binding signal [12]: 303000
EC50 [13]: 6.5 nM
Maximum binding signal [13]: 445000
EC50 [14]: 15 nM
Maximum binding signal [14]: 135000
